The values below come from patent US20210403579A1 (DELINIA, published 2021).

This experiment has as its target T1, Human ST2 (human, UniProt Q01638 19-328, limits assumed).
T1 construct: also called human ST2 protein; Interleukin 1 receptor-like 1
T1 sequence (looked up): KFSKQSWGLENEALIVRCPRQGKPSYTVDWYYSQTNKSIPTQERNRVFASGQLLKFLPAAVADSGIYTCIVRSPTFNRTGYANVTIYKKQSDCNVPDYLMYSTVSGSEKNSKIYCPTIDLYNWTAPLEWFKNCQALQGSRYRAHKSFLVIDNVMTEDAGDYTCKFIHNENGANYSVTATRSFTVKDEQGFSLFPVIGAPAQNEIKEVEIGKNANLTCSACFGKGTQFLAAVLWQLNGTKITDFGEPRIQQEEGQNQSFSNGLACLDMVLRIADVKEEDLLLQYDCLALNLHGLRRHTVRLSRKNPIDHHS
The experiment can be described thus: SPR (Carterra), antibody immobilized, ST2 analyte. On the procedure:
Binding of the reformatted human ST2 antibodies to the human and mouse ST2 proteins was evaluated by surface plasmon resonance (SPR), using a high throughput antibody screening and characterization platform from Carterra (Salt Lake City, Utah).

One may read the Kd as a measure of binding affinity in units of concentration. A higher Kd goes with weaker binding. In general, koff refers to the first-order rate constant of dissociation. Higher therefore signals a short-lived complex. The term kon denotes the rate constant with which the complex forms. Lower therefore signals slow association.

B1: Human ST2 IgG1 Antibody 47 (antibody, V domains shown)
VH: QVQLVQSGAEVKKPGSSVKVSCKASGYTFTNYYMHWVRQAPGQGLEWMGGIIPIFGTANYAQKFQGRVTITADESTSTAYMELSSLRSEDTAVYYCARGGYYDSSQFDIWGQGTMVTVSS
VL: not shown
notes: IgG1; also called ST2 Antibody 47
B1 registered a Kd of 413 nM, an off-rate (koff) of 0.12 s⁻¹ and a kon of 300000 M⁻¹ s⁻¹.

B2: Human ST2 IgG1 Antibody 42 (antibody, V domains shown)
VH: QVQLVQSGAEVKKPGASVKVSCKASGYTFNSHWVHWVRQAPGQGLEWMGWISAYNGNTNYAQKLQGRVTMTRDTSTSTVYMELSSLRSEDTAVYYCASGDYPYYYYGMDVWGQGTTVTVSS
VL: DIQMTQSPSSLSASVGDRVTITCRASQGVANWLAWYQQKPGKAPKLLIYSASNLQSGVPSRFSGSGSGTDFTLTISSLQPEDFATYYCQQSSSFPLTFGQSTRLEIKR
notes: IgG1; also called ST2 Antibody 42
Molecule B2 yielded a Kd of 278 nM, an off-rate (koff) of 0.088 s⁻¹ and a kon of 320000 M⁻¹ s⁻¹.

B3: Human ST2 IgG1 Antibody 38 (antibody, V domains shown)
VH: QVQLVQSGAEVKKPGSSVKVSCKASGGTFSSYAISWVRQAPGQGLEWMGTIIPMFGIADYAQKFQGRVTITADESTSTAYMELSSLRSEDTAVYYCARSSRSSSWYNWYFDLWGRGTLVTVSS
VL: EIVMTQSPATLSVSPGERATLSCRASQSISSSYLAWYQQKPGQAPRLLIYGASTRATGIPARFSGSGSGTEFTLTISSLQSEDFAVYYCQQYYTTPWTFGQGTKVEIKR
notes: IgG1; also called ST2 Antibody 38
B3 returned a Kd of 17 nM, a koff of 0.0053 s⁻¹ and a kon of 310000 M⁻¹ s⁻¹.

B4: Human ST2 IgG1 Antibody 49 (antibody, V domains shown)
VH: QVQLVQSGAEVKKPGASVKVSCKASGGTLSSYAISWVRQAPGQGLEWMGGISPYNGKANYAEKLQGRVTMTRDTSTSTVYMELSSLRSEDTAVYYCAIRSIAAREGVYYYYMDVWGKGTTVTVSS
VL: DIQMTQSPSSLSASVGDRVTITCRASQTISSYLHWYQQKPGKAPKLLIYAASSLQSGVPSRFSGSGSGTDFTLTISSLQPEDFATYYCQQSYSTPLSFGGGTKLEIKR
notes: IgG1; also called ST2 Antibody 49
In turn, B4 gave a Kd of 269 nM, a dissociation rate constant (koff) of 0.085 s⁻¹ and a kon of 320000 M⁻¹ s⁻¹.

B5: Human ST2 IgG1 Antibody 39 (antibody, V domains shown)
VH: QVQLVQSGAEVKKPGSSVKVSCKASGYTFTSYYMQWVRQAPGQGLEWMGGIIPIFGTANYAQKFQGRVTITADESTSTAYMELSSLRSEDTAVYYCARARFGAVDYWGQGTLVTVSS
VL: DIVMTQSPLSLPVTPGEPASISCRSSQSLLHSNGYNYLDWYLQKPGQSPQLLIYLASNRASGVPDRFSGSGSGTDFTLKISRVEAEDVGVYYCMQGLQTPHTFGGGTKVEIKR
notes: IgG1; also called ST2 Antibody 39
B5 yielded a Kd of 57 nM, a koff of 0.022 s⁻¹ and a kon of 390000 M⁻¹ s⁻¹.

B6: Human ST2 IgG1 Antibody 50 (antibody, V domains shown)
VH: QVQLVQSGAEVKKPGASVKVSCKASGAAFNTVAISWVRQAPGQGLEWMGWMNPNSGNTGYAQKFQGRVTMTRDTSTSTVYMELSSLRSEDTAVYYCARTPAAAGTVYFDYWGQGTLVTVSS
VL: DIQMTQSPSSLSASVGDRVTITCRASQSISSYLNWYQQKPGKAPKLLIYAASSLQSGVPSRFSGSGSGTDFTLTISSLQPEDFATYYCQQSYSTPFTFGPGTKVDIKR
notes: IgG1; also called ST2 Antibody 50
As to B6, the Kd came to 213 nM, the koff came out at 0.075 s⁻¹ and the kon was found to be 350000 M⁻¹ s⁻¹.

B7: Human ST2 IgG1 Antibody 33 (antibody, V domains shown)
VH: QVQLVQSGAEVKKPGSSVKVSCKASGDTFDTYAISWVRQAPGQGLEWMGGIIPIFGTANYAQKFQGRVTITADESTSTAYMELSSLRSEDTAVYYCARSRGRGYSYGSGLFDYWGQGTLVTVSS
VL: DIVMTQSPLSLPVTPGEPASISCRSSESLLITNGFNYIDWYLQKPGQSPQLLIYLGSNRAAGVPDRFSGSGSGTDFTLKISRVEAEDVGVYYCMQALQTPITFGQGTKVEIKR
notes: IgG1; also called ST2 Antibody 33
In turn, B7 returned a Kd of 529 nM, a koff of 0.13 s⁻¹ and a kon of 240000 M⁻¹ s⁻¹.

B8: Human ST2 IgG1 Antibody 45 (antibody, V domains shown)
VH: QVQLVQSGAEVKKPGSSVKVSCKASGGTFSSYAISWVRQAPGQGLEWMGGIVPIFETANYAQKFQGRVTITADESTSTAYMELSSLRSEDTAVYYCARDTPNFDYWGQGTLVTVSS
VL: not shown
notes: IgG1; also called ST2 Antibody 45
For the molecule B8, the Kd worked out at 22 nM, the koff was determined as 0.02 s⁻¹ and the kon amounted to 920000 M⁻¹ s⁻¹.

B9: Human ST2 IgG1 Antibody 65 (antibody, V domains shown)
VH: QVQLVQSGAEVKKPGSSVKVSCKASGGTFSSYAISWVRQAPGQGLEWMGGIIPIFGTANYAQKFQGRVTITADESTSTAYMELSSLRSEDTAVYYCARDNPDFDYWGQGTLVTVSS
VL: DIQMTQSPSSLSASVGDRVTITCRASQGISNYLNWYQQKPGKAPKLLIYAASSLQSGVPSRFSGSGSGTDFTLTISSLQPEDFATYYCQQSYRTPITFGQGTRLEIKR
notes: IgG1; also called ST2 Antibody 65
Molecule B9 yielded a Kd of 76 nM, a koff of 0.055 s⁻¹ and a kon of 730000 M⁻¹ s⁻¹.

B10: Human ST2 IgG1 Antibody 34 (antibody, V domains shown)
VH: QVQLVQSGAEVKKPGASVKVSCKASGQTFTDYAINWVRQAPGQGLEWMGWMNPNSGNTGYAQKFQGRVTMTRDTSTSTVYMELSSLRSEDTAVYYCARETLEQQLPFDYWGQGTLVTVSS
VL: DIQMTQSPSSLSASVGDRVTITCRASQSISSWLAWYQQKPGKAPKLLIYAASTLQSGVPSRFSGSGSGTDFTLTISSLQPEDFATYYCQQYYSTLYTFGQGTKVEIKR
notes: IgG1; also called ST2 Antibody 34
Take B10: the affinity, expressed as Kd, was 109 nM; the koff came to 0.0011 s⁻¹; the kon came to 10000 M⁻¹ s⁻¹.

B11: Human ST2 IgG1 Antibody 48 (antibody, V domains shown)
VH: EVQLLQSGGGLVQPGGSLRLSCAASEFTFSNAWMSWVRQAPGKGLEWVSTISGTSRYTYYADSVKGRFTISRDNSKNSLYLQMNSLRAEDTAVYYCARDQDGRLDYWGQGTLVTVSS
VL: DIQMTQSPSSLSASVGDRVTITCRASQNIGSWLAWYQQKPGKAPKLLIYRASTLQSGVPSRFSGSGSGTDFTLTISSLQPEDFATYYCQQSYSTPYTFGQGTKVEIKR
notes: IgG1; also called ST2 Antibody 48
The molecule B11 displayed a Kd of 146 nM, a koff of 0.024 s⁻¹ and an association rate constant (kon) of 170000 M⁻¹ s⁻¹.

B12: Human ST2 IgG1 Antibody 40 (antibody, V domains shown)
VH: QVQLVQSGAEVKKPGASVKVSCKASGYTFTSYYIHWVRQAPGQGLEWMGIINPSADTTTYAQQFQGRVTMTRDTSTSTVYMELSSLRSEDTAVYYCARTPGNYGGNSLGYYYYYGMDVWGQGTLVTVSS
VL: DIQMTQSPSSLSASVGDRVTITCRASQSVGTWLAWYQQKPGKAPKLLIYAASTLQSGVPSRFSGSGSGTDFTLTISSLQPEDFATYYCQQSYSSPLTFGPGTKVDIKR
notes: IgG1; also called ST2 Antibody 40
As to B12, the affinity, expressed as Kd, was 691 nM; the koff stood at 0.12 s⁻¹; the association rate constant (kon) was 180000 M⁻¹ s⁻¹.

B13: Human ST2 IgG1 Antibody 43 (antibody, V domains shown)
VH: QVQLVQSGAQVKKPGASVKVSCKASGYTFSSYYIHWVRQAPGQGLEWMGWINPHSGGTNYGQEFQGRVTMTRDTSTSTVYMELSSLRSEDTAVYYCARDSSGMGATIGYWGQGTLVTVSS
VL: DIQMTQSPSSLSASVGDRVTITCRASQSVNRRLAWYQQKPGKAPKLLIYAASTLQSGVPSRFSGSGSGTDFTLTISSLQPEDFATYYCQQGNSFPITFGQGTKVEIKR
notes: IgG1; also called ST2 Antibody 43
Regarding B13, the Kd came to 146 nM, the koff worked out at 0.0074 s⁻¹ and the kon turned out to be 51000 M⁻¹ s⁻¹.

B14: Human ST2 IgG1 Antibody 44 (antibody, V domains shown)
VH: EVQLLESGGGLVKPGGSLRLSCAASGFTFSSYWMSWVRQAPGKGLEWVSAISGTAINTYYADSVKGRFTISRDDSKNTLYLQMNSLKTEDTAVYYCARVRRDSSGGGAFDIWGQGTMVTVSS
VL: DIQMTQSPSSLSASVGDRVTITCRASQGISNNLNWYQQKPGKAPKLLIYAASSLQTGVPSRFSGSGSGTDFTLTISSLQPEDFATYYCQQSYSTPPTFGQGTKVEIKR
notes: IgG1; also called ST2 Antibody 44
In turn, B14 came in with a Kd of 100 nM, a koff of 0.024 s⁻¹ and a kon of 240000 M⁻¹ s⁻¹.

B15: Human ST2 IgG1 Antibody 36 (antibody, V domains shown)
VH: QVQLVQSGAEVKKPGASVKVSCKASGYTFTSYGISWVRQAPGQGLEWMGWIDPNSGGTNYAQKFQGRVTMTRDTSTSTVYMELSSLRSEDTAVYYCARDDWFSGDLDYWGQGTLVTVSS
VL: DIQMTQSPSSLSASVGDRVTITCRASQGIDSWLAWYQQKPGKAPKLLIYAASKLQGGVPSRFSGSGSGTDFTLTISSLQPEDFATYYCQQGYSTPITFGQGTKVDIKR
notes: IgG1; also called ST2 Antibody 36
Turning to B15, the Kd came to 264 nM, the koff is 0.14 s⁻¹ and the kon worked out at 510000 M⁻¹ s⁻¹.

B16: Human ST2 IgG1 Antibody 37 (antibody, V domains shown)
VH: EVQLLESGGGLVQPGGSLRLSCAASGFTFTDAWMNWVRQAPGKGLEWVSTISVSVGVTYYADSVKGRFTISRDNSKNTLYLQMNSLRAEDTAVYYCATIGSMATIRKGATDAFDIWGQGTLVTVSS
VL: DIQMTQSPSSLSASVGDRVTITCRASQRINSYLNWYQQKPGKAPKLLIYAASTLQSGVPSRFSGSGSGTDFTLTISSLQPEDFATYYCQQSYSTPPTFGGGTKVEIKR
notes: IgG1; also called ST2 Antibody 37
Molecule B16 displayed a Kd of 138 nM, a koff of 0.085 s⁻¹ and a kon of 620000 M⁻¹ s⁻¹.

B17: Human ST2 IgG1 Antibody 35 (antibody, V domains shown)
VH: QVQLVQSGAEVKKPGASVKVSCKASAYTFTSYGISWLRQAPGQGLEWMGWINPNSGNTGYAHKFQGRVTMTRDTSTSTVYMELSSLRSEDTAVYYCARGGSGWPTWGQGTLVTVSS
VL: DIQMTQSPSSLSASVGDRVTITCQASQDISNYLNWYQQKPGKAPKLLIYGASSLQSGVPSRFSGSGSGTDFTLTISSLQPEDFATYYCQQANTFPFTFGPGTKVDIKR
notes: IgG1; also called ST2 Antibody 35
As to B17, the Kd was 104 nM, the koff came to 0.016 s⁻¹ and the kon was 160000 M⁻¹ s⁻¹.

B18: Human ST2 IgG1 Antibody 46 (antibody, V domains shown)
VH: EVQLLESGGGLVKPGGSLRLSCAASGFTFSSYWMSWVRQAPGKGLEWVSSISGTSNYMYYADSVKGRFTISRDDSKNTLYLQMNSLKTEDTAVYYCARDRGFLGYFDYWGQGTLVTVSS
VL: DIQMTQSPSSLSASVGDRVTITCQASQYISNYLNWYQQKPGKAPKLLIYGASTLQSGVPSRFSGSGSGTDFTLTISSLQPEDFATYYCQQSQSTPLTFGPGTKVDIKR
notes: IgG1; also called ST2 Antibody 46
Regarding B18, the Kd worked out at 339 nM, the koff was 0.042 s⁻¹ and the kon was found to be 120000 M⁻¹ s⁻¹.

B19: Human ST2 IgG1 Antibody 41 (antibody, V domains shown)
VH: QVQLVQSGAEVKKPGSSVKVSCKASGYTFTDYQMHWVRQAPGQGLEWVGVINPGGGSTTYAQTFQGRVTITADESTSTAYMELSSLRSEDTAVYYCARGGVEYSSSWDYYYYYGMDVWGQGTTVTVSS
VL: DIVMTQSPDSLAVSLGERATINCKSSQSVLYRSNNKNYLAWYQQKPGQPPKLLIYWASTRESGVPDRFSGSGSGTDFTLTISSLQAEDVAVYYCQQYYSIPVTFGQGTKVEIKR
notes: IgG1; also called ST2 Antibody 41
Regarding B19, the Kd turned out to be 99 nM, the koff came to 0.0024 s⁻¹ and the kon stood at 24000 M⁻¹ s⁻¹.
